Measured values reported in US20160097044A1, “Antimicrobial Enzyme Fusions Reduce Resistance and Kill Intracellular Staphylococcus aureus” (The United States of America, as Represented by the …, priority 2014, published 2016).
“Also recorded” adds a separate entry of the source.

Columns and labels:
[1] = system: intracellular S. aureus strain UAMS-1 in primary mouse-derived osteoblasts (mOBs); assay: Intracellular S. aureus eradication assay in murine osteoblasts; format: cell-based; conditions: mOB, 5 μg/ml, 2 h
Source text: FIGS. 5a-5e depict peptidoglycan hydrolase-protein transduction domain (PGH-PTD) eradication of intracellular S. aureus in cultured cells. Cultured cells were infected, treated with gentamicin to kill extracellular S. aureus, and then treated with the peptidoglycan hydrolases indicated. All results are standardized to the gentamicin (GENT) only control. Nomenclature of the peptidoglycan hydrolase constructs is as in FIG. 1. Asterisks indicate statistical significance detected with single factor ANOVA (α=0.05) with paired t-test posthoc analyses α=0.05 adjusted with Sidák correction for multiple comparisons (for all cases p<0.01). […] Error bars represent SEM. […] Yellow staining in the combined panel represents intracellular co-localization (in a single plane as determined by z-stack analysis) of both S. aureus and K-L-PTD1 (blue arrow). […]
Three similar intracellular S. aureus eradication assays from three different labs were optimized for (A) a cultured bovine mammary epithelial cell line (MAC-T, Nexia Biotechnologies, Quebec, Canada; Almeida, supra), (B) primary C57BL/6 mouse-derived osteoblasts (mOBs) (McCall et al. 2008. J. Bone Miner. Res. 23: 30-40) or (C) human brain microvascular endothelial cells (hBMEC; Stins, supra). […] The cell lysate was subjected to serial dilution plating, and the resultant CFUs were counted and normalized to the gentamicin control for each assay. […]

[2] = system: post-treatment isolates of S. aureus ALR; assay: Resistance of isolates recovered from nares of treated rats (plate lysis, MIC); format: cell-based
Method: The Minimum Inhibitory Concentrations (MIC) of each protein for multiple S. aureus strains was determined as previously described (Jones et al. 1985. In: Manual of Clinical Microbiology, Eds. Balows et al. American Society of Microbiology, Washington D.C., pp. 972-977) with the following modifications. Enzymes were serially diluted two fold across a 96 well plate, such that after dilution, 50 μl of the enzyme solution in 300 mM NaCl, 50 mM NaH2PO4, 30% glycerol pH 7.5, remained in each well. To each well was added 50 μl of TSB and 100 μl of S. aureus Newman in TSB (diluted to 5×10^6 cells/ml). The plates were incubated 20 h at 37° C. and read with a 96 well plate reader. MIC determination values were reported as the median of ≧4 replicates (Table 1).

| Molecule | intracellular S. aureus CFUs relative to gentamicin only control [1] | MIC of 8 post-treatment isolates ([2]; isolates from rats treated with triple fusion L-K, N=32) | resistance of colonies recovered from nares of treated rats ([2]; plate lysis analysis, N=22 colonies) |
| --- | --- | --- | --- |
| K-L: both LysK lytic domains fused to the N-terminus of lysostaphin; SEQ ID NO:5, protein SEQ ID NO:6 | reduced the intracellular bacteria recovered | – | – |
| L-K: LysK lytic domains inserted between lysostaphin's M23 endopeptidase domain and SH3b cell wall binding domain; SEQ ID NO:7, protein SEQ ID NO:8 (protein, Staphylococcus simulans & Phage K) MAATHEHSAQWLNNYKKGYGYGPYPLGINGGMHYGVDFFMNIGTPVKAISSGKIVEAGWSNYGGGNQIGLIENDGVHRQWYMHLSKYNVKVGDYVKAGQIIGWSGSTGYSTAPHLHFQRMVNSFSNSTAQDPMPFLKSAGYGKAGGTVTPTPNTGLDAKTQAEINKRLDAYAKGTVDSPYRVKKATSYDPSFGVMEAGAIDADGYYHAQCQDLITDYVLWLTDNKVRTWGNAKDQIKQSYGTGFKIHENKPSTVPKKGWIAVFTSGSYEQWGHIGIVYDGGNTSTFTILEQNWNGYANKKPTKRVDNYYGLTHFIEIPVKAGTTVKKETAKKSASKTPAPKKKATLKVSKNHINYTMDKRGKKPEGMVIHNDAGRSSGQQYENSLANAGYARYANGIAHYYGSEGYVWEAIDAKNQIAWHTGDGTGANSGNFRFAGIEVCQSMSASDAQFLKNEQAVFQFTAEKFKEWGLTPNRKTVRLHMEFVPTACPHRSMVLHTGFNPVTQGRPSQAIMNKLKDYFIKQIKNYMDKGTSSSTVVKDGKTSSASLDTVTPTPNTGWKTNKYGTLYKSESASFTPNTDIITRTTGPFRSMPQSGVLKAGQTIHYDEVMKQDGHVWVGYTGNSGQRIYLPVRTWNKSTNTLGVLWGTIKLEHHHHHH | – | 7.0 ± 2.4 µg/mL | not more resistant than the parental strain; also recorded: no in vivo resistance development detected |
